Source: article doi:10.1101/2023.07.25.550441

How the values were obtained:
Assay in all cases: SPR
[1] = molecular target: Asgard UEV (the UEV of UEV-Vps23 and UEV-Vps28), as tested against Asgard ubiquitin
[2] = molecular target: Helarchaeia full-length RING E3 (Helarchaeota)
[3] = molecular target: Helarchaeia RING E3 (N-loopΔ), truncated E3 that lacks the N-loop (residues 1-19) (Helarchaeota)

Kd [1] [µM]	Kd [2] [µM]	Kd [3] [µM]	Substance
0.674 to 7.15			Asgard ubiquitin, as tested against Asgard UEV
	257	8140	Helarchaeia UEV (residues 1-132) of UEV-Vps23 (domain or fragment)
